One experiment addresses T1, 14-3-3σ (UniProt P31947 1-248).
T1 construct: 14-3-3σ (sigma isoform of 14-3-3, SFN), the protein titrated in the fluorescence anisotropy assays; With the covalent compounds of the FA assays C38 becomes modified in the sample; also called sigma isoform
T1 sequence (looked up): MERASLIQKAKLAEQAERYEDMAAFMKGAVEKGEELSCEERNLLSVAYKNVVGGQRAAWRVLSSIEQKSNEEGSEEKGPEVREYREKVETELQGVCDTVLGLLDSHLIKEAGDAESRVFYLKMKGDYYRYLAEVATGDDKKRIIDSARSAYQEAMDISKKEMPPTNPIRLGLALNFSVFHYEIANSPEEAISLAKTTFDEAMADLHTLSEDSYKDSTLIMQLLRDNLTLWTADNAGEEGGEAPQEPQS
The experiment can be described thus: fluorescence polarisation; fluorescence anisotropy protein titration: 14-3-3σ titrated into 10 nM labeled peptide in the presence of DMSO; apparent. Conditions: both partners purified.

For experiment [1], the target named is T2, C-RAF-NanoLuciferase (Nluc) (UniProt P04049 1-648).
T2 construct: C-RAF, full-length RAF client of the cell assays; source: HEK293T, transfected, in cells
As to the kind of experiment: FRET or BRET; NanoBRET in HEK293T cells: RAF tagged with NanoLuciferase, 14-3-3σ with HaloTag/fluorescent HaloTag ligand; dose responses of compounds against DMSO. To be noted: partners not purified. Background: BRET reads energy transfer from a luciferase to a nearby fluorophore.

The target in another experiment is T3, A-RAF (NanoBRET fusion) (UniProt P10398 1-606).
T3 construct: A-RAF, full-length RAF client of the cell assays; Used in the 14-3-3σ/A-RAF and the A-RAF/C-RAF NanoBRET assays; the fusion partner may differ between them; The cell line is told for the first NanoBRET assays only; source: HEK293T, transfected, in cells; not shown: NanoLuciferase or HaloTag (from the NanoBRET method)
Described as above. To be noted: partners not purified.

A further experiment deals with T4, B-RAF (NanoBRET fusion) (UniProt P15056 1-766).
T4 construct: B-RAF, full-length RAF client of the cell assays; Used in the 14-3-3σ/B-RAF and the B-RAF/C-RAF NanoBRET assays; the fusion partner may differ between them; The cell line is told for the first NanoBRET assays only; source: HEK293T, transfected, in cells; not shown: NanoLuciferase or HaloTag (from the NanoBRET method)
The description is as above. Conditions: partners not purified.

Non-standard residues stand in square brackets, D forms with d. No end group written: not given here. pS = N[C@@H](COP(=O)(O)O)C(=O)O

Experimental findings from publication PMC12903857 (Journal of the American Chemical Society, 2026) are described below.

T4 sequence (P15056 whole entry, the tested form may be a part): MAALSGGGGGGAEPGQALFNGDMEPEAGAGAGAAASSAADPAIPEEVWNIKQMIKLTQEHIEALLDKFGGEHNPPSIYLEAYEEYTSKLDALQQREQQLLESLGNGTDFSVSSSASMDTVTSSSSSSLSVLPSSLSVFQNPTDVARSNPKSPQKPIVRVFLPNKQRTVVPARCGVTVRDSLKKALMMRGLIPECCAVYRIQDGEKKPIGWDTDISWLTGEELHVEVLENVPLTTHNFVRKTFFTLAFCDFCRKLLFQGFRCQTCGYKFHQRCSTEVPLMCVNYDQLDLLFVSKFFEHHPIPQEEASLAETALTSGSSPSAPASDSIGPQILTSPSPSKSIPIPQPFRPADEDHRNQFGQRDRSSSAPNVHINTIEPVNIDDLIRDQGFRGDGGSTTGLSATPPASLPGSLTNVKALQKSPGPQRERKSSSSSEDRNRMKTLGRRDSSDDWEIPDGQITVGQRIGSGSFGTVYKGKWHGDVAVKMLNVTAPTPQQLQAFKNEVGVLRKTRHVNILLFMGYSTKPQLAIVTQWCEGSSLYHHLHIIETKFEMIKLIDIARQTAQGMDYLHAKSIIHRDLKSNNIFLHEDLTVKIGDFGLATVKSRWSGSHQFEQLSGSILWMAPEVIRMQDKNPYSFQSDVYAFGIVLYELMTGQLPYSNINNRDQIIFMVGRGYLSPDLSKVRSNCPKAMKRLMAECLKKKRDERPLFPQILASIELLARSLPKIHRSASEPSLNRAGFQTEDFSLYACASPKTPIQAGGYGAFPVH

With QRST[pS]TPNVH (also: FAM label, site not given here) [FAM-labeled C-RAF259 peptide (10-mer)], the Kd in the experiment with 14-3-3σ is 8.43 µM.

B1: 14-3-3σ-Halotag (HT) (natural protein, UniProt P31947 1-248, looked up)
chain: T1 sequence (looked up)
modifications: fluorescent HaloTag ligand on the HaloTag
notes: 14-3-3σ, full length, for NanoBRET; also called full-length 14-3-3σ; source: HEK293T, transfected, in cells
On to B1, for which, in experiment [1], the “fold stabilization (BRET signal) with 22 against DMSO” value is 1.5 fold, the “fold stabilization (BRET signal) with 23 against DMSO” value amounted to 1.6 fold, the “fold stabilization (BRET signal) with 70 against DMSO” value amounted to 1.3 fold and the “fold stabilization (BRET signal) with 78 against DMSO” value is 1.4 fold. Moreover, in the experiment with A-RAF (NanoBRET fusion), the “fold increase (BRET signal) with 10 μM 22” value worked out at 1.6 fold and the “fold increase (BRET signal) with 10 μM 23” value amounted to 1.7 fold. Moreover, in the experiment with B-RAF (NanoBRET fusion), the “fold increase (BRET signal) with 22” value is 1.4 fold and the “fold increase (BRET signal) with 23” value came to 1.4 fold.
